Data reported in US8158585B2, “Cross-β structure comprising amyloid-binding proteins and methods for detection of the cross-β structure, for modulating cross-β structures fiber formation and modulating cross-β structure-mediated toxicity” (CrossBeta Biosciences B.V., priority 2002, dated 2012).
Where no end group is shown, it is not given here.

Experiments:
[1] = Circular dichroism: percentage β-sheet (k2d software); type: physicochemical
Experimental: UV circular dichroism (CD) spectra of peptide and protein solutions ([…] in H2O) were measured on a JASCO J-810 CD spectropolarimeter (Tokyo, Japan). Averaged absorption spectra of five or ten single measurements from 190-240 nm or from 190-250 nm, for fibrin peptides 85, 86, 87 or for albumin, glycated albumin and human Aβ (16-22), respectively, are recorded. The CD spectrum of Aβ (16-22) was measured as a positive control. Aβ (16-22) readily adopts amyloid fiber conformation with cross-β structure when incubated in H2O^45. For albumin and Aβ (16-22), relative percentage of the secondary structure elements present was estimated using k2d software.^48

tPA = molecular target: T1, tPA (Homo sapiens, UniProt P00750); experiment: ELISA: binding of tPA to 86-week glycated albumin-AGE preparations; conditions: albumin incubated 86 weeks; 10 mM εACA
T1 construct: purchased Boehringer-Ingelheim (Germany)
Experimental: Binding of the cross-B structure marker tPA to albumin-AGE was tested using an ELISA setup. […] Therefore, we used tPA binding to these two peptides as positive control. The 86-week glycated samples and controls were coated to Greiner microlon plates (catalogue #655092, Greiner, Frickenhausen, Germany). Wells were blocked with Superblock (Pierce, Rockford, Ill., USA). All subsequent incubations were performed in PBS/0.1% (v/v) Tween 20 for one hour at room temperature while shaking, with volumes of 50 μl per well. After incubation, wells were washed five times with 300 μl PBS/0.1% (v/v) Tween 20. Increasing concentrations of tPA were added in triplicate to coated wells as well as to control wells. During tPA incubations of 86-week incubated samples, at least a 123,000 times molar excess of ε-amino caproic acid (εACA, 10 mM) was added to the solutions. εACA is a lysine analogue and is used to avoid potential binding of tPA to albumin via its kringle 2 domain.^50 Monoclonal antibody 374b (American Diagnostica, Instrumentation laboratory, Breda, The Netherlands) and, subsequently, RAMPO (Dako diagnostics, Glostrup, Denmark) was added to the wells at a concentration of 0.3 μg ml^−1. Bound peroxidase-labeled antibody was visualized using 100 μl of a solution containing 8 mg ortho-phenylene-diamine in 20 ml 50 mM citric acid/100 mM Na2HPO4 pH 5.0 with 0.0175% (v/v) H2O2. Staining was stopped upon adding 50 μl of a 2 M H2SO4 solution. Absorbance was read at 490 nm on a Vmax kinetic microplate reader (Molecular Devices, CA, USA). Background signals from non-coated control wells were substracted from corresponding coated wells.

Aβ fibrils = molecular target: T2, Aβ fibrils (Homo sapiens, UniProt P05067); experiment: Amyloid pull-down with insoluble Aβ fibers; type: binding; conditions: conditioned BHK medium
T2 construct: Peptide Aβ (1-40), containing amino acids as present in the described human Alzheimer peptide; purchased Pepscan, Inc. (The Netherlands) or peptide synthesis facility at the Netherlands Cancer Institute; host or cells: synthetic peptide
Experimental: Conditioned medium of BHK cells expressing GST-tagged tPA F, F-EGF, EGF, K1, F-EGF-K1, FXII F, HGFa F, Fn F4, Fn F5, Fn F4-5 and GST was used for amyloid binding assays. At first, constructs were adjusted to approximately equal concentration using Western blots. Qualitative binding of the recombinant fragments were evaluated using a “pull-down” assay. To this end, the recombinantly made fragments were incubated with either Aβ or IAPP fibrils. Since these peptides form insoluble fibers, unbound proteins can be easily removed from the fibers following centrifugation. The pellets containing the bound fragments were subsequently washed several times. Bound fragments were solubilized in SDS-sample buffer and analyzed by PAGE, as were unbound proteins in the supernatant fraction and starting material. The gels were analyzed using immunoblotting analysis with the anti-GST antibody Z-5.

[2] = molecular target: T3, tPA-mediated plasminogen activation (Homo sapiens, UniProt P00750); experiment: Plasminogen activation assay; type: biochemical; conditions: plasminogen 200 μg ml−1, tPA 200 pM, 5 μM co-factor, S-2251
T3 construct: purchased Boehringer-Ingelheim (Germany)
Experimental: Plasminogen (200 μg ml^−1) was incubated with tPA (200 pM) in the presence or the absence of a co-factor (5 μM of either endostatin, Aβ (1-40), or one the fibrin-derived peptides 85, 86 and 87). At the indicated time intervals, samples were taken and the reaction was stopped in a buffer containing 5 mM EDTA and 150 mM εACA. After collection of the samples, a chromogenic plasmin substrate S-2251 was added and plasmin activity was determined kinetically in a spectrophotometer at 37° C.

T2 sequence (P05067 672-711): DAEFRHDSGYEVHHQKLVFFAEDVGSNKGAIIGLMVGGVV
T3 sequence (P00750 36-562): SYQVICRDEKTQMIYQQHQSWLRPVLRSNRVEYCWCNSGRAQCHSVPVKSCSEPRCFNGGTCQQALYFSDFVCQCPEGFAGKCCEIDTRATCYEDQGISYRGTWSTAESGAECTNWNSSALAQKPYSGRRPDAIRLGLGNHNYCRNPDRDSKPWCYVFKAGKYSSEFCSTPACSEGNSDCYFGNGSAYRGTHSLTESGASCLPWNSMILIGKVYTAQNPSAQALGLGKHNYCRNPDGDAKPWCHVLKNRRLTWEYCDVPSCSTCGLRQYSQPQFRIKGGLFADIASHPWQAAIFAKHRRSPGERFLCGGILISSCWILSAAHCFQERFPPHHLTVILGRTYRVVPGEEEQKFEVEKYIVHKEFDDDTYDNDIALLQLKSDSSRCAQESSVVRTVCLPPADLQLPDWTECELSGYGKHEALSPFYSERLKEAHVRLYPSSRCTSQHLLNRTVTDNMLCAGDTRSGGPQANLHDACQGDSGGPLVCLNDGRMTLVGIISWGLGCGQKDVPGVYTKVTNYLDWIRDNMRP
T1 sequence (P00750 36-562): as above

Albumin control: albumin incubated with g6p or glyceraldehyde omitted [reference compound]
β-sheet (%) ([1]; incubation time 2 weeks): 0%
β-sheet (%) ([1]; incubation time 23 weeks): 0%

Albumin-glyceraldehyde: glyceraldehyde-modified albumin
β-sheet (%) ([1]; incubation time 2 weeks): 0%
binding of amyloid-specific serine protease tPA (tPA): bound specifically

Aβ (16-22): human Aβ fragment, positive control that adopts amyloid fiber conformation (KLVFFAE) [reference compound]
β-sheet (%) ([1]; no incubation time given): 100%

EGF-GST: EGF fragment of human tPA with C-terminal GST tag (CSEPRCFNGGTCQQALYFSDFVCQCPEGFAGKCCEID-{GST}; cysteine pairing not given here)
binding to Aβ fibers (pull-down, Western blot) (Aβ fibrils): remain in the supernatant

KCNTATCATQRLANFLVHSSNNFGAILSSTNVGSNTY (Peptide fl-hIAPP from Homo sapiens)
stimulation of tPA-mediated plasmin formation [2]: stimulate
stimulation of tPA-mediated plasmin formation ([2]; listed as IAPP): enhanced
binding of amyloid-specific serine protease tPA (tPA): bound specifically

KRLEVDIDIK (Peptide FP10 from Homo sapiens) [compound 87]
stimulation of tPA-mediated plasmin formation [2]: does not

KRLEVDIDIKIR (Peptide FP12 from Homo sapiens) [compound 86]
stimulation of tPA-mediated plasmin formation [2]: stimulate

KRLEVDIDIKIRS (Peptide FP13 from Homo sapiens) [compound 85]
stimulation of tPA-mediated plasmin formation [2]: stimulate

SNNFGAILSS (Peptide Delta hIAPP from Homo sapiens) [Δ-hIAPP]
stimulation of tPA-mediated plasmin formation [2]: stimulate

SNNLGPVLPP (Peptide Delta mIAPP from Homo sapiens) [Δ-mIAPP]
stimulation of tPA-mediated plasmin formation [2]: not

albumin-glyoxylic acid: albumin incubated 86 weeks with 500 mM glyoxylic acid/100 mM NaCNBH3
binding of amyloid-specific serine protease tPA (tPA): No tPA binding

B1: F-EGF-K1-GST: F-EGF-K1 fragment of human tPA with C-terminal GST tag (protein)
chain: SYQVICRDEKTQMIYQQHQSWLRPVLRSNRVEYCWCNSGRAQCHSVPVKSCSEPRCFNGGTCQQALYFSDFVCQCPEGFAGKCCEIDTRATCYEDQGISYRGTWSTAESGAECTNWNSSALAQKPYSGRRPDAIRLGLGNHNYCRNPDRDSKPWCYVFKAGKYSSEFCSTPACSE
modifications: left off: small tags and cut ends; a dimerising Fc or GST
notes: F-EGF-K1 fragment of human tPA with C-terminal GST tag
binding to Aβ fibers (pull-down, Western blot) (Aβ fibrils): Efficient binding

B2: K1-GST: K1 fragment of human tPA with C-terminal GST tag (protein)
chain: TRATCYEDQGISYRGTWSTAESGAECTNWNSSALAQKPYSGRRPDAIRLGLGNHNYCRNPDRDSKPWCYVFKAGKYSSEFCSTPACSE
modifications: left off: small tags and cut ends; a dimerising Fc or GST
notes: K1 fragment of human tPA with C-terminal GST tag
binding to Aβ fibers (pull-down, Western blot) (Aβ fibrils): remain in the supernatant
